Results published in publication PMC4029776, “Transiently Produced Hypochlorite Is Responsible for the Irreversible Inhibition of Chlorite Dismutase” (Biochemistry, 2014).

B1: NdCld (chlorite dismutase from "Candidatus Nitrospira defluvii") (Nitrospira defluvii) (protein)
chain: ADREKLLTESGVYGTFATFQMDHDWWDLPGESRVISVAEVKGLVEQWSGKILVESYLLRGLSDHADLMFRVHARTLSDTQQFLSAFMGTRLGRHLTSGGLLHGVSKKPTYVAGFPESMKTELQVNGESGSRPYAIVIPIKKDAEWWALDQEARTALMQEHTQAALPYLKTVKRKLYHSTGLDDVDFITYFETERLEDFHNLVRALQQVKEFRHNRRFGHPTLLGTMSPLDEILEKFAQ

Columns and labels:
[1] = test system: Arg183; assay: kinetics; conditions: ferric heme enzyme, chlorite turnover (inferred from context); cited from earlier work
[2] = substrate: [O-][Cl+]O; assay: Clark-type O2 electrode, initial rates, Michaelis-Menten; assay type: biochemical, Nitrospira defluvii; conditions: pH 7.0, 50 mM phosphate, 30 °C, 50 nM enzyme, NaClO2 10-1000 μM

| Molecule | pKa [1] | Km [2] | kcat [2] |
| --- | --- | --- | --- |
| Chlorite dismutase (DaCld) (Dechloromonas aromatica) | ∼pH 6.5 | – | – |
| B1 | – | 138 ± 20 µM | 83 ± 4 s^–1 |
